± gives the standard deviation of the averaged measurements.
System: ATP
Test: switch fluorescence ratio, 500 uM ATP over buffer (Cy3 cluster intensity, sum of 5 cycles each) (fold (ratio)); higher = stronger signal-on switching upon ATP binding; sequences stand for … in TCGTCGGCAGCGTCAGATGTGTATAAGAGACAGTTTTTTTTTTTTTTTTTTTTTTTTT…TC
Details: aptamer strand: ATP DNA aptamer (quencher-CACCTGGGGGAGTATTGCGGAGGAAGG + anchor), 100 nM annealed; ATP concentration: 500 uM
How it was run: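 The fluorescence ratio divides summed target-cycle Cy3 intensity by summed buffer-cycle Cy3 intensity for each cluster and is averaged per switch-domain sequence. Cy3-labelled switching-strand clusters on a modified Illumina MiSeq flow-cell were annealed to 100 nM quencher-labelled ATP aptamer, then imaged in selection buffer and again after 15 min with 500 uM ATP at 22 °C. Five such cycles were run, with NaOH stripping and re-annealing between them, and clusters outside 100-1000 RFU were excluded.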
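Note: ATP exposure 15 min at 22 °C before imaging.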

Sequence	switch fluorescence ratio
GTCAAACGGA	0.986 ± 0.018
GTCAAAGGGT	0.99 ± 0.022
GTCAATTAGG	0.997 ± 0.024
GTCACCAGGG	1.58 ± 0.082
GTCACGGGGG	1.026 ± 0.0027
GTCAGAGGGG	0.979 ± 0.028
GTCAGATAGG	1.004 ± 0.008
GTCAGGGGTG	1.04 ± 0.052
GTCATGCGTG	0.974 ± 0.044
GTCATTGGGT	0.99 ± 0.021
GTCATTTTGG	1.03 ± 0.036
GTCCGGGGGG	1.26 ± 0.015
GTCCTCGCAT	4.8 ± 0.54
GTCCTGGGGC	0.9947 ± 0.0014
GTCGAAAGGG	1.01 ± 0.05
GTCGAAAGGT	0.984 ± 0.019
GTCGAAGGGT	1 ± 0.048
GTCGACAGCG	1.02 ± 0.035
GTCGAGGGAA	0.995 ± 0.022
GTCGAGGGTC	0.944 ± 0.03
GTCGATAGCG	0.984 ± 0.015
GTCGATGGGG	0.969 ± 0.014
GTCGATGGTG	1 ± 0.016
GTCGCGGCGA	0.9664 ± 0.006
GTCGCGGGGG	1.04 ± 0.071
GTCGGACCCG	0.973 ± 0.019

Sequence	switch fluorescence ratio
GTCGGGCCCG	1.01 ± 0.06
GTCGGGCGTA	0.991 ± 0.016
GTCGGGGGGC	0.985 ± 0.021
GTCGGGGGGT	1 ± 0.025
GTCGGTAGGT	1 ± 0.032
GTCGTCCTGT	0.9884 ± 0.0083
GTCGTTGCCT	0.99139 ± 0.00027
GTCGTTGGTG	1 ± 0.056
GTCGTTTAAA	0.9898 ± 0.0062
GTCTAAAATC	0.978 ± 0.038
GTCTAAGAGT	0.9786 ± 0.0048
GTCTAAGTGC	0.996 ± 0.011
GTCTAATATG	0.9716 ± 0.0048
GTCTAATCAT	0.967 ± 0.019
GTCTCATCAC	1.01 ± 0.056
GTCTCTTAGG	1.01 ± 0.014
GTCTCTTCAT	0.986 ± 0.026
GTCTGATTTA	1.01 ± 0.011
GTCTTAGGTC	1 ± 0.035
GTCTTGGGTG	1.02 ± 0.019
GTCTTGGTTC	0.9721 ± 0.0084
GTCTTTAGGG	0.9755 ± 0.0055
GTCTTTTGTG	1.31 ± 0.43
GTGAAGGTCG	0.927 ± 0.022
GTGAATAGTT	0.995 ± 0.032
GTGAATGCTG	0.938 ± 0.048

Sequence	switch fluorescence ratio
GTGACAAAAA	1.027 ± 0.0026
GTGACCGTGT	1 ± 0.053
GTGACGAAGA	1.033 ± 0.0065
GTGACGATGT	1.01 ± 0.0071
GTGACGGGGC	1.02 ± 0.058
GTGAGAAGAA	0.97 ± 0.01
GTGAGAGAGT	0.962 ± 0.015
GTGAGCCGTT	1.04 ± 0.025
GTGAGGATGG	0.978 ± 0.012
GTGAGGATTG	0.98581 ± 8e-05
GTGAGGGGCT	0.977 ± 0.04
GTGAGGGGGG	1.01 ± 0.013
GTGAGGGTGG	0.9695 ± 0.0093
GTGAGGTATC	1.04 ± 0.032
GTGAGGTCGG	0.968 ± 0.015
GTGAGTAGGT	0.974 ± 0.014
GTGAGTCAGC	1.06 ± 0.075
GTGAGTTTGT	1.01 ± 0.027
GTGATAAAAT	1.01 ± 0.031
GTGATACAAA	0.999 ± 0.022
GTGATCCCCG	1.006 ± 0.0041
GTGATGACTT	1.001 ± 0.0061
GTGATGGATG	0.997 ± 0.057
GTGATGGTTT	0.982 ± 0.013
GTGATGTCTC	1.008 ± 0.0091
GTGATTATGG	0.981 ± 0.028

Sequence	switch fluorescence ratio
GTGATTTGCG	1.008 ± 0.0036
GTGATTTGT	1.01 ± 0.03
GTGATTTTCT	0.998 ± 0.015
GTGCAATGGC	1.57 ± 0.18
GTGCCAACGT	0.981 ± 0.035
GTGCCCTGTA	0.9704 ± 0.0046
GTGCGAATGG	0.998 ± 0.016
GTGCTAGCTC	1.004 ± 0.0034
GTGCTAGGTT	0.984 ± 0.023
GTGCTTAGGC	1.06 ± 0.026
GTGCTTGGGC	0.9955 ± 0.0058
GTGCTTGGGG	0.99 ± 0.044
GTGGAAAAAA	1 ± 0.02
GTGGAAAGAT	1.01 ± 0.018
GTGGAAGGTA	0.991 ± 0.011
GTGGAATGGT	0.986 ± 0.024
GTGGACAGGG	1 ± 0.013
GTGGAGGCGC	0.989 ± 0.023
GTGGAGTTGG	1.31 ± 0.44
GTGGATAAAA	0.972 ± 0.029
GTGGATATTT	0.986 ± 0.015
GTGGATGTAC	1.06 ± 0.05
GTGGATTGCG	0.9975 ± 0.0075
GTGGCAAAGT	0.9678 ± 9.7e-05
GTGGCACTGT	0.989 ± 0.019
GTGGCCAACC	1.02 ± 0.0022

Sequence	switch fluorescence ratio
GTGGCGGGAG	0.997 ± 0.017
GTGGCGGTTT	0.995 ± 0.044
GTGGCGTAGA	1.02 ± 0.012
GTGGCGTGCT	0.976 ± 0.045
GTGGCTCAGG	1.05 ± 0.054
GTGGCTGGG	0.988 ± 0.038
GTGGGAAGTC	0.965 ± 0.04
GTGGGAAGTG	0.975 ± 0.025
GTGGGACATA	0.999 ± 0.044
GTGGGATGAT	0.9663 ± 0.0078
GTGGGATTGC	0.9959 ± 0.0067
GTGGGCCGCG	0.979 ± 0.029
GTGGGCGATT	1.01 ± 0.024
GTGGGGCGCC	1.01 ± 0.03
GTGGGGGTGC	0.987 ± 0.033
GTGGGGTAAA	1.01 ± 0.055
GTGGGGTACT	0.9612 ± 0.0055
GTGGGGTTGC	0.984 ± 0.021
GTGGGTAACT	0.998 ± 0.041
GTGGGTACGG	1 ± 0.028
GTGGGTATTG	1 ± 0.02
GTGGGTCATA	0.953 ± 0.099
GTGGGTCCTA	0.9891 ± 0.0013
GTGGGTCGGG	1.006 ± 0.0049
GTGGGTTCGC	1 ± 0.043
GTGGGTTGGC	1.03 ± 0.043

Sequence	switch fluorescence ratio
GTGGGTTGTA	1.01 ± 0.05
GTGGTAACTT	1.007 ± 0.0082
GTGGTAAGCT	1.02 ± 0.049
GTGGTACACG	1.01 ± 0.026
GTGGTACGTG	1 ± 0.064
GTGGTAGGGC	1.021 ± 0.001
GTGGTAGTGG	0.949 ± 0.023
GTGGTCCGGG	0.979 ± 0.037
GTGGTCCGTG	0.962 ± 0.0097
GTGGTCGTGC	0.9761 ± 0.0041
GTGGTGAGGC	1.001 ± 0.0055
GTGGTGAGTG	0.97 ± 0.021
GTGGTGGCTG	0.976 ± 0.048
GTGGTGGGTC	0.975 ± 0.026
GTGGTGGGTG	1 ± 0.091
GTGGTTAAGA	0.9961 ± 0.002
GTGGTTCTGA	1.03 ± 0.024
GTGGTTCTGG	1.01 ± 0.018
GTGGTTGCGG	0.987 ± 0.04
GTGGTTTGGT	0.979 ± 0.035
GTGGTTTGTG	1 ± 0.011
GTGTAACGTT	1 ± 0.042
GTGTAAGTAG	0.997 ± 0.024
